According to publication PMC8648464:

B1: 70nt poly(dT) (ssDNA)
DNA: TTTTTTTTTTTTTTTTTTTTTTTTTTTTTTTTTTTTTTTTTTTTTTTTTTTTTTTTTTTTTTTTTTTTTT

Tests used:
[1] = target: T1, E. coli single-stranded DNA binding protein (SSB) (Escherichia coli, UniProt P0AGE0 1-178); assay: competition
[2] = target: T1, E. coli single-stranded DNA binding …; assay: single-molecule free solution hydrodynamic separation
[3] = target: T1, E. coli single-stranded DNA binding …; assay: competition; remark: listed apart in the source
[4] = target: T1, E. coli single-stranded DNA binding …; assay: single-molecule free solution hydrodynamic separation; remark: listed apart in the source

T1 sequence (P0AGE0 whole entry): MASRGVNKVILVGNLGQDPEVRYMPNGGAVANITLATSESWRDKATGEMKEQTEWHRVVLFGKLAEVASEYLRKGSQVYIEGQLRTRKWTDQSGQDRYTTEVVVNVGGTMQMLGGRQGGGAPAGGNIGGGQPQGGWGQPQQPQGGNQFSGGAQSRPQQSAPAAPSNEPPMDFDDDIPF

Row | Binder | Kd [1] [nM] | Kd [2] [nM] | Kd [3] [nM] | Kd [4] [nM]
1 | B1 | 22.1 ± 1.5 | 21.7 ± 0.2 |  | 
2 | TTTTTTTTTTTTTTTTTTTTTTTTTTTTTTTTTTT (ssDNA) [35nt poly(dT)] |  |  | 11.7 ± 0.6 | 10 ± 0.5
